These results are taken from publication PMC10377357 (2023).

First the molecules themselves.
B1: Rps2(76–145)-TurboID [S. cerevisiae] / Pse1 [S. cerevisiae (endogenous in the yeast strains)] (parent complex)
chain 1: LQDEVMNIKPVQKQTRAGQRTRFKAVVVVGDSNGHVGLGIKTAKEVAGAIRAGIIIAKLSVIPIRRGYWG
chain 2: MSALPEEVNRTLLQIVQAFASPDNQIRSVAEKALSEEWITENNIEYLLTFLAEQAAFSQDTTVAALSAVLFRKLALKAPPSSKLMIMSKNITHIRKEVLAQIRSSLLKGFLSERADSIRHKLSDAIAECVQDDLPAWPELLQALIESLKSGNPNFRESSFRILTTVPYLITAVDINSILPIFQSGFTDASDNVKIAAVTAFVGYFKQLPKSEWSKLGILLPSLLNSLPRFLDDGKDDALASVFESLIELVELAPKLFKDMFDQIIQFTDMVIKNKDLEPPARTTALELLTVFSENAPQMCKSNQNYGQTLVMVTLIMMTEVSIDDDDAAEWIESDDTDDEEEVTYDHARQALDRVALKLGGEYLAAPLFQYLQQMITSTEWRERFAAMMALSSAAEGCADVLIGEIPKILDMVIPLINDPHPRVQYGCCNVLGQISTDFSPFIQRTAHDRILPALISKLTSECTSRVQTHAAAALVNFSEFASKDILEPYLDSLLTNLLVLLQSNKLYVQEQALTTIAFIAEAAKNKFIKYYDTLMPLLLNVLKVNNKDNSVLKGKCMECATLIGFAVGKEKFHEHSQELISILVALQNSDIDEDDALRSYLEQSWSRICRILGDDFVPLLPIVIPPLLITAKATQDVGLIEEEEAANFQQYPDWDVVQVQGKHIAIHTSVLDDKVSAMELLQSYATLLRGQFAVYVKEVMEEIALPSLDFYLHDGVRAAGATLIPILLSCLLAATGTQNEELVLLWHKASSKLIGGLMSEPMPEITQVYHNSLVNGIKVMGDNCLSEDQLAAFTKGVSANLTDTYERMQDRHGDGDEYNENIDEEEDFTDEDLLDEINKSIAAVLKTTNGHYLKNLENIWPMINTFLLDNEPILVIFALVVIGDLIQYGGEQTASMKNAFIPKVTECLISPDARIRQAASYIIGVCAQYAPSTYADVCIPTLDTLVQIVDFPGSKLEENRSSTENASAAIAKILYAYNSNIPNVDTYTANWFKTLPTITDKEAASFNYQFLSQLIENNSPIVCAQSNISAVVDSVIQALNERSLTEREGQTVISSVKKLLGFLPSSDAMAIFNRYPADIMEKVHKWFA
B2: Rps2(1–145)-TurboID [S. cerevisiae] / Pse1 [S. cerevisiae (endogenous in the yeast strains)] (parent complex)
chain 1: MSAPEAQQQKRGGFGGRNRGRPNRRGPRNTEEKGWVPVTKLGRLVKAGKITTIEEIFLHSLPVKEFQIIDTLLPGLQDEVMNIKPVQKQTRAGQRTRFKAVVVVGDSNGHVGLGIKTAKEVAGAIRAGIIIAKLSVIPIRRGYWG
chain 2: B1 chain 2
B3: Rps2(1–145)-TurboID [S. cerevisiae] / Tsr4 [S. cerevisiae (endogenous in YDK11-5A)] (parent complex)
chain 1: B2 chain 1
chain 2: MSKIEELPPSDTDDHSYSSKPGDVFLAFVDAPVKETDDILVEDSFIGGEPKWLHPDSEPPAELLKCGACKSADNMKLLLQAFSPLDDEQMSAIQQRLGINNMSYINPQDDRVLYVFLCTECQRKGNSVRCIRGVKKNKNVDSLSEKMASTSLEKDFQINPFDLSNNSDSKCNAFSSNPFGGANANPFGADSINSNISQSKDEGKKKESATVSAKTARKLHDLQKDKEYDGNKCFKSCLLYVEEETFKNKKPAHLQLPKNLKIDKEALDLTGDEDLEKDPIKLDPRTEKLSKFLDDDTFQKFQEVVGYNPLQVLRYDLGGKPLLYAETKVDILSTVPRPGYNPSSQRIFEMQLMPKMIFDLEEVVSVDNGMEWGTILVFTDVENYMPEFDEHGVGYVEECVKVQWESRT

The variants in the first experiment derive from B1. In words: TurboID-based proximity labeling; baits expressed from plasmid under the copper-inducible CUP1 promoter; parent: 3.1; read off a plot.
In the case of chain 1 R20A, chain 1 R22A, chain 1 K24A, the enrichment is ~-0.4 log2 fold change vs controls.

The variants in another experiment derive from B1. The experiment in a line: TurboID-based proximity labeling; baits expressed from plasmid under the copper-inducible CUP1 promoter; parent: 100; read off a plot.
With chain 1 R20A, chain 1 R22A, chain 1 K24A, the response is around 9 normalized iBAQ.

The next experiment covers variants of B2. The experiment in a line: TurboID-based proximity labeling; parent: 2; read off a plot.
chain 1 R95A, chain 1 R97A, chain 1 K99A: the enrichment was ~0.9 log2 fold change vs controls.

The variants in a further experiment derive from B2. In words: TurboID-based proximity labeling; parent: 30; read off a plot.
On to chain 1 R95A, chain 1 R97A, chain 1 K99A, for which the response was around 26 normalized iBAQ.

Variants of B3 are the subject of a further experiment. In words: TurboID-based proximity labeling; parent: 5.9; read off a plot.
On to chain 1 R95A, chain 1 R97A, chain 1 K99A, for which the enrichment is ~5.9 log2 fold change vs controls.

The variants in another experiment derive from B3. In words: TurboID-based proximity labeling; parent: 210; read off a plot.
With chain 1 R95A, chain 1 R97A, chain 1 K99A, the response is around 260 normalized iBAQ.
